Data as given in the RNAGym collection of RNA variant scans (doi:10.1073/pnas.2313332121).
Fewer inactive variants are shown than the library holds.

B1: TPR 5TU (parent)
chain: GGAUCUUCUCGAUCUAACAAAAAAGACAAAUCUGCCACAAAGCUUGAGAGCAUCUUCGGAUGCAGAGGCGGCAGCCUUCGGUGGCGCGAUAGCGCCAACGUUCUCAACUAUGACACGCAAAACGCGUGCUCCGUUGAAUGGAGUUUAUCAUG

Variants of: B1
Experiment: polymerase ribozyme fitness, log enrichment relative to wild type (log ratio); higher = more active; in vitro selection for triplet polymerase activity
How it was run: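 Libraries of mutants in each subunit of a heterodimeric triplet polymerase ribozyme were generated by PCR and transcribed. In triplicate, each went through one in vitro selection round: annealing with biotinylated primer, partner subunit and triplets; frozen incubation at −7 °C; gel excision of extended constructs; streptavidin-bead capture; RT-PCR. Fitness, taken from Illumina sequencing of input and output libraries, is the logarithm of a genotype's enrichment over wild-type enrichment, averaged across replicates with inverse-variance weights. The logarithm is base 2, and genotypes needed ≥10 input reads and ≥1 read per output to be kept.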

Variant	polymerase ribozyme fitness (log ratio)
C36U C108U	≤ -4.2
C57U C87G A107C C108U U135A U151C	≤ -4.2
A89C U101C U146A	0.0757
C14G A47C A60U G65A	≤ -4.2
C14U G84C A122G G136A	-3.51
C96G A120C U146C	-0.778
A22U A29U A39U U55A C79A C93G	≤ -4.2
C8G C10A C93U A106U A107U C108U U148G	≤ -4.2
C35G A47C G67C A91C C103G	≤ -4.2
C5U U6C C10U G83C	-2.89
U55A G86U	-1.44
A22U C54U A107U U134C U145C	-4.02
C54A C132U	-2.3
C5G A52C C85U	-2.14
U6G U15A A20G C87U	-0.616
G48A C79U	-3.91
G11A A20U C54A C87G G100C U145A	≤ -4.2
C103G U145C	-1.74
U33G C36U A60U C87U A91G C108A U109A	≤ -4.2
A107G	-2.92
A20G U148C	-1.93
C32G A73U A97U A120G G126A	≤ -4.2
U61G C105U A115G A147C G152U	≤ -4.2
G126A C149G	-3.13

Variant	polymerase ribozyme fitness (log ratio)
G50C G59C U102G	-2.34
A16C C85A	-2.36
U7G A22G C36A U56G G62U G88A	≤ -4.2
U7G G50C A52C G84A C114U A138G	≤ -4.2
C87U A142U	-0.783
A60G C108U G126U	-3.26
U55A G83A G126A	0.425
A26C U56C G65A C75U A91U C96U	≤ -4.2
U7C A12U	-2.57
U44A U53G	≤ -4.2
U44A C85G U109G U146C	≤ -4.2
C51U G58U A91U C96U G100C A138C	≤ -4.2
A40C U44A U55A C57A C76A	≤ -4.2
G42A G71U G126A A138C	≤ -4.2
C123U A137G	-0.927
U15C A26G U44G C54U C63U C87G U90C	≤ -4.2
C57G G59A G81C U104G A120U	-1.84
A29C G88C G92U	≤ -4.2
U56G U90A	-3.7
U53A U151G	≤ -4.2
A19C C54G G94U U111A A115C C125U	≤ -4.2
C8U A19G C79U C85G	≤ -4.2
C38A U61A A97G C123U	-1.68
A47C U55G U56C C85U G133C G140C	≤ -4.2

Variant	polymerase ribozyme fitness (log ratio)
G50U A97G	-0.0233
C18U G48U C85A U144C	-2.83
C36U A97U U130C	-1.25
A73U C76U	-1.32
G42A A66U A89G U145A	≤ -4.2
A30C U31A U44A U55A C57G C76G	≤ -4.2
A23C C72U C87A C96U C105U	≤ -4.2
A20C A28U C35A G67U U102A	≤ -4.2
G48C C57A C72G	≤ -4.2
U31G G46C C79U G117C U144C	≤ -4.2
C57A G70A U134C	-3.65
C14A A37U G84A C125U	-3.95
A49U U55A C96A	-1.06
A26U G50C C105A U109G C129U	≤ -4.2
A66U C87G U90G U102A C132U	≤ -4.2
G58A G81C G84A G133C U144G	-0.672
C8A A28C A30G C96A U127G	≤ -4.2
C5A C14U C32A U33A A47U U82G G92U G126C U135G	≤ -4.2
A41C C43U A97G C108U G140U	≤ -4.2
A17U G59A C87U C93A G143U U146G	≤ -4.2
A41G C54U	0.979
C57U G58A G83A G86A C118U C123A	-1.76
G11C A21G A28U C38U C87A G133C U144G A150C	≤ -4.2
G59U G80A C85A	-0.927

Variant	polymerase ribozyme fitness (log ratio)
A26G G46U A52G C116U G140C G143C	≤ -4.2
A21G G25C G34A G71U G100C A107U U109C A121U A150U	≤ -4.2
A3G C96A A98U U102C	-2.26
G42A U61A G86A	≤ -4.2
A12U A21C G80C G81A C93G G140U	≤ -4.2
A17C C85A	-2.22
C54A G58U C99A U145A	-2.04
U6A A17G C27U A66U U145A	≤ -4.2
C8U G84U G117U G140C U146G	≤ -4.2
C85U C95A	-0.427
G25A C35U G50C G88U C118G U151G	≤ -4.2
C57A G74A	-2.66
G50A G74C C87A U144C U151C	≤ -4.2
A22C G34A A64G U144G U151A	-4.04
C10U G67C	≤ -4.2
A19G G92A G124U	-3.61
U55G U61A	-3.22
A20U G62C G71A G117U U135G	≤ -4.2
U55G G86U U145A	-0.475
G58A G83U A98U C103U	-1.15
A37G G59C A147C	-2.8
C54G G141A	-1.35
A17C C27U C85U G86U C123U G141A	-3.85
U55A A73G U77G A91C C116A G141A	≤ -4.2

Variant	polymerase ribozyme fitness (log ratio)
U15C A41C C57U C76U C93U	-0.0442
A12C A41U C75U A122C C125U	-3.38
U45A C118U A120C	-2.58
U33A G84A	-3.81
G42A G48A U53A C76A C93G	≤ -4.2
G48A C54U G84A G92U C99G U109G G133C	≤ -4.2
A40G G71C G74U C93U A98G	≤ -4.2
C14U U78C	-2.43
C85U A89U	-0.431
A22G A73U C87U	-3.05
U55A A91U C108A U130C G133U	≤ -4.2
C69A U102C	≤ -4.2
C14G U53A G84C G92U C95A A107G A119U	≤ -4.2
A23U C76A	-3.84
U53A G83C C105G	≤ -4.2
A89C C93U U135A	-3.55
G83C C118A	-1.14
C18A A20U G25C G83A C87U U145A C149A	≤ -4.2
A49C C54U C69A G94A U151C	≤ -4.2
C8G A16C C93U A137G	≤ -4.2
A17G C36U	-3.9
A39U U104G	-3.71
A20U G25C G50C C118U	≤ -4.2
U15A A40G U55A A60U C114A	≤ -4.2

Variant	polymerase ribozyme fitness (log ratio)
G81U C96U A107U U145C	-3.1
U33G C38A A39U C76U C99U A150U	≤ -4.2
U9G C85U	-3.41
C43G U53A G81U U82C	≤ -4.2
U55G G74A C85U A110G	≤ -4.2
C105A A120G C123A C132U G136C	-3.32
A3C U33C U44A U56G C85G	≤ -4.2
U56A G58C G59C C76G	≤ -4.2
A22U A30C C32A A60C C85G G86A A89U A110G U135G U144G	≤ -4.2
C76U A119C	-0.584
U55G G58U G62C C85U A137G	-3.31
C116U A142C	-1.1
A17U C54U G84A	-0.832
C8A U15A A19U A28U A30U C38A A39C A40U G59U C99G A107U C114U	≤ -4.2
G65A G70A G94A C116U G143U	≤ -4.2
A28U C57G	-3.84
C27A U33G U55A C116G	-4.1
U31A C95G A119U	-1.25
C95A G100U A106G A110G A142U	-4.01
U56A C99A	-1.6
C32U G59U C85U A115G	-3.62
U55G G58C U144G	-0.023
C51U G86U U145G	-2.27
U44G G65A G68A	≤ -4.2

Variant	polymerase ribozyme fitness (log ratio)
C10G A107C	≤ -4.2
G50C A89G A107C C123G	≤ -4.2
A39U U77A U78G C85G G86A	≤ -4.2
A30C C69G C76A G94A G140A	≤ -4.2
C14U C36G G71U A122U G124U	≤ -4.2
A17U U53A	-0.974
A41C C85U G112C	-3.5
C14A U55A G68A A107U	≤ -4.2
A91G C125A	-3.21
C36A C79U G88C A113G A150U	≤ -4.2
G86C A137G	-3.37
G50U G94U C103U	-2.08
C27G C38A G42A G62A G68A A122C G128A U146G	-4.01
A23C G58A C96U A106G	≤ -4.2
C32A A37G C54A G86C C99A A113G C125U U135A	≤ -4.2
C85U A137C	-3.1
G25A C75A A91U	≤ -4.2
U101G A137G	-1.31
A37C C118U A121G	0.0889
A19U A73G	0.504
A12C C57A	-0.21
C57A C93A A106U A122U	-2.85
A16U A20U C54U G58C G59A C93U C114U U148A	≤ -4.2
